The target of test [1] is T1, cynomolgus FOLR1 protein, His Tag (ACRO F01-C52H8) (cynomolgus, UniProt A0A2K5U044 25-233).
T1 construct: Bought protein coated on ELISA plates; also called Cynomolgus/Rhesus macaque FOLR1, Protein, His Tag; not shown: His tag
Description: ELISA, coated cyno FOLR1-His, supernatant 5x. (An ELISA detects its analyte on a solid surface through an enzyme-linked reagent.)

Test [2] deals with T2, human FOLR1 protein, His Tag (ACRO FO1-H52H1) (human, UniProt P15328 25-233).
T2 construct: Bought protein coated on ELISA plates; not shown: His tag
T2 sequence (P15328 25-233 limits assumed): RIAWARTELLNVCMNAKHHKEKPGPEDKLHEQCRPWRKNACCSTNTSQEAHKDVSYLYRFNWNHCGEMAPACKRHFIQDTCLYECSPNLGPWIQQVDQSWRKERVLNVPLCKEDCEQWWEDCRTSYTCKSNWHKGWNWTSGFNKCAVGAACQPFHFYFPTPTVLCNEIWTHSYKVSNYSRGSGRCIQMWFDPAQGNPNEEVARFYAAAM
Nature of the test: ELISA, coated hFOLR1-His, HEK293 supernatant.

Test [3] has as its target T2, human FOLR1 protein, His Tag (ACRO …). Nature of the test: ratio of OD450 on hFOLR1 to OD450 on anti-human IgG Fc.
The target is the same in test [4]. Nature of the test: ELISA, coated hFOLR1-His, supernatant 1x.
Test [5] has the same target. Description: ELISA, coated hFOLR1-His, supernatant 5x.
Test [6] has as its target T1, cynomolgus FOLR1 protein, His Tag (ACRO …). Nature of the test: ELISA, coated cyno FOLR1-His, supernatant 1x.
For test [7] the target is unchanged. Nature of the test: ELISA, coated cyno FOLR1-His, supernatant 25x.
For test [8], the target named is T2, human FOLR1 protein, His Tag (ACRO …). Nature of the test: ELISA, coated hFOLR1-His, supernatant 25x.

T1 sequence (A0A2K5U044 entry or part of it): as the sequence (P15328 25-233 limits assumed) above, with I2T, W4R, R37K, A146P, H171Y counted along it

B1: F40 (antibody, V domains shown)
VH: EVQLLESGGGVVQPGRSLRLSCAASGFTFSSYAMHWVRQAPGKGLEWVAVISYDGSNKYYADSVKGRFIISRDNSKNTVYLQMNSLRAEDTAVYYCARPTYVFTYTGSSFDYWGQGTQVTVSS
VL: DIQVTQSPSSLSASLGDTVSITCRASRGLTDSVAWYQQKPGQAPKLLIYAASTLQSGVPSRFGGSGSGSYFTLTITSLQPEDVATYYCQNYKSAPWTFGQGTKVEIK
notes: Tested as full-length IgG with an IgG1 Fc from HEK293, as supernatant or purified; also called clone F40; anti-FOLR1 antibody F40
As to B1, the OD450 in test [1] is 1.11 OD450; in test [2], 2.39 OD450; in test [4], 0.811 OD450; in test [5] it was 0.382 OD450; in test [6], 1.35 OD450; in test [7] it was 0.924 OD450. The OD450 in test [8] was 0.163 OD450. In addition, the “Target binding/IgG level” value in test [3] came to 1.02.

B2: F1 (antibody, V domains shown)
VH: EVQLLESGGGVVQPGRSLRLSCAASGFTFSSYGMHWVRQAPGKGLEWVAVISYDGSNKYYADSVKGRFTISRDNSKNTLYLQMNSLRAEDTAVYYCARPRAYYGAYGSSFDYWGQGTQVTVSS
VL: EIVMTQSPSSVSASVGDRVAITCRASQGISSWLAWYQQKPGKAPKLLIYAASSLQSGVPSRFSGSGSGTDFTLTISSLQPEDFATYYCQQSYSTPLTFGGGTKVDIK
notes: also called clone F1; anti-FOLR1 antibody F1
As for B2, the OD450 in test [1] was 1.26 OD450; in test [2] it was 2.43 OD450; in test [4], 1.66 OD450; in test [5], 1.45 OD450; in test [6], 1.38 OD450; in test [7], 0.994 OD450. Moreover, the OD450 in test [8] is 1.18 OD450. Moreover, in test [3], the “Target binding/IgG level” value turned out to be 1.08.

B3: F48 (antibody, V domains shown)
VH: EVQLLESGGGVVQPGRSLRLSCAASGFTFSSYGMHWVRQAPGKGLEWVAVISYDGSNKYYADSVKGRFTISRDNSKNTLYLHMNSLRAEDTAVYYCARPRAYYGAYGSSFDYWGQGTQVTVSS
VL: EIVMTQSPSSVSASVGDRVAITCRASQGISSWLAWYQQKPGKAPKLLIYAASSLQSGVPSRFSGSGSGTDFTLTISSLQPEDFATYYCQQSYSTPLTFGGGTKVDIK
notes: Tested as full-length IgG with an IgG1 Fc from HEK293, as supernatant or purified; also called clone F48; anti-FOLR1 antibody F48
With B3, the OD450 in test [1] worked out at 1.04 OD450; in test [2], 2.54 OD450; in test [4], 1.56 OD450; in test [5], 1.59 OD450; in test [6] it was 1.15 OD450; in test [7] it was 0.908 OD450. In test [8], this molecule yielded an OD450 of 1.29 OD450. Also, in test [3], the “Target binding/IgG level” value stood at 1.12.

B4: F8 (antibody, V domains shown)
VH: EVQLLESGGGVVQHGRSLRLSCAASGFTFSSYGMHWVRQAPGKGLEWVAVISYDGSNKYYADSVKGRFTISRDNSKNTLYLQMNSLRAEDTAVYYCARPRAYYGAYGSSFDYWGQGTQVTVSS
VL: EIVMTQSPSSVSASVGDRVAITCRASQGISSWLAWYQQKPGKAPKLLIYAASSLQSGVPSRFSGSGSGTDFTLTISSLQPEDFATYYCQQSYSTPLTFGGGTKVDIK
notes: Tested as full-length IgG with an IgG1 Fc from HEK293, as supernatant or purified; also called clone F8; anti-FOLR1 antibody F8
Turning to B4, the OD450 in test [1] came out at 1.28 OD450; in test [2], 2.45 OD450; in test [4], 1.67 OD450; in test [5], 1.65 OD450; in test [6], 0.896 OD450; in test [7], 1.06 OD450. Moreover, the OD450 in test [8] was 1.31 OD450. The “Target binding/IgG level” value in test [3] was 1.12.

B5: F123 (antibody, V domains shown)
VH: EVQLLESGGGVVQPERSLRLSCAASGFTFSSYGMHWVRQAPGKGLEWVAVISYDGSNKYYADSVKGRFTISRANSKNTLYLQMNSLRAEDTAVYYCARPRAYYGAYGSSFDYWGQGTQVTVSS
VL: EIVMTQSPSSVSASVGDRVAITCRASQGISSWLAWYQQKPGKAPKLLIYAASSLQSGVPSRFSGSGSGTDFTLTISSLQPEDFATYYCQQSYSTPLTFGGGTKVDIK
notes: Tested as full-length IgG with an IgG1 Fc from HEK293, as supernatant or purified; also called clone F123; anti-FOLR1 antibody F123
In the case of B5, the OD450 came to 1.3 OD450 in test [1]; 2.32 OD450 in test [2]; 1.72 OD450 in test [4]; 1.47 OD450 in test [5]; 1.36 OD450 in test [6]; 1.07 OD450 in test [7]. The OD450 in test [8] was found to be 1.33 OD450. The “Target binding/IgG level” value in test [3] was 1.06.

B6: F112 (antibody, V domains shown)
VH: EVQLLESGGGVVQPGRSLRLSCAASGFTFSSYGMHWVRQAPGKGLEWVAVISYDGSNKYYADSVKGRFTISRHNSKNTLYLQMNSLRAEDTAVYYCARPRAYYGAYGSSFDYWGQGTQVTVSS
VL: EIVMTQSPSSVSASVGDRVAITCRASQGISSWLAWYQQKPGKAPKLLIYAASSLQSGVPSRFSGSGSGTDFTLTISSLQPEDFATYYCQQSYSTPLTFGGGTKVDIK
notes: Tested as full-length IgG with an IgG1 Fc from HEK293, as supernatant or purified; also called clone F112; anti-FOLR1 antibody F112
For B6, the OD450 in test [1] came out at 1.21 OD450; in test [2], 2.35 OD450; in test [4], 1.56 OD450; in test [5] it was 1.42 OD450; in test [6], 1.26 OD450; in test [7], 0.933 OD450. The OD450 in test [8] came out at 1.17 OD450. In addition, the “Target binding/IgG level” value in test [3] came out at 1.12.

B7: F138 (antibody, V domains shown)
VH: EVQLLESGGGVVQPGRSLRLSCAASGFTFSSYGMHWVRQAPGKGLEWVAVISYDGSNKYYADSVKGRFTISTHNSKNTLYLQMNSLRAEDTAVYYCARPRAYYGAYGSSFDYWGQGTQVTVSS
VL: EIVMTQSPSSVSASVGDRVAITCRASQGISSWLAWYQQKPGKAPKLLIYAASSLQSGVPSRFSGSGSGTDFTLTISSLQPEDFATYYCQQSYSTPLTFGGGTKVDIK
notes: Tested as full-length IgG with an IgG1 Fc, HEK293 supernatant; also called clone F138; anti-FOLR1 antibody F138
B7: the OD450 in test [1] turned out to be 1.14 OD450; in test [2], 2.41 OD450; in test [4], 1.64 OD450; in test [5] it was 1.69 OD450; in test [6] it was 1.14 OD450; in test [7], 1.17 OD450. Also, the OD450 in test [8] stood at 1.83 OD450. The “Target binding/IgG level” value in test [3] amounted to 1.2.

B8: F100 (antibody, V domains shown)
VH: EVQLLESGGGVVQPGRSLRLSCAASGFTFSSYGMHWVRQAPGKGLEWVAVISYDGSNKYYADSVKGRFTISRPNSKNTLYLQMNSLRAEDTAVYYCARPRAYYGAYGSSFDYWGQGTQVTVSS
VL: EIVMTQSPSSVSASVGDRVAITCRASQGISSWLAWYQQKPGKAPKLLIYAASSLQSGVPSRFSGSGSGTDFTLTISSLQPEDFATYYCQQSYSTPLTFGGGTKVDIK
notes: Tested as full-length IgG with an IgG1 Fc from HEK293, as supernatant or purified; also called clone F100; anti-FOLR1 antibody F100
Take B8: the OD450 in test [1] is 1.03 OD450; in test [2], 2.3 OD450; in test [4] it was 1.61 OD450; in test [5], 1.53 OD450; in test [6], 1.16 OD450; in test [7], 0.875 OD450. In addition, the OD450 in test [8] was 1.18 OD450. The “Target binding/IgG level” value in test [3] was determined as 1.48.

B9: F26 (antibody, V domains shown)
VH: EVQLLESGGGVVQRGRSLRLSCAASGFTFSSYGMHWVRQAPGKGLEWVAVISYDGSNKYYADSVKGRFTISRDNSKNTLYLPMNSLRAEDTAVYYCARPRAYYGAYGSSFDYWGQGTQVTVSS
VL: EIVMTQSPSSVSASVGDRVAITCRASQGISSWLAWYQQKPGKAPKLLIYAASSLQSGVPSRFSGSGSGTDFTLTISSLQPEDFATYYCQQSYSTPLTFGGGTKVDIK
notes: Tested as full-length IgG with an IgG1 Fc from HEK293, as supernatant or purified; also called clone F26; anti-FOLR1 antibody F26
As to B9, the OD450 turned out to be 1.21 OD450 in test [1]; 2.43 OD450 in test [2]; 1.64 OD450 in test [4]; 1.51 OD450 in test [5]; 1.24 OD450 in test [6]; 1.02 OD450 in test [7]. Besides, the OD450 in test [8] came out at 1.48 OD450. The “Target binding/IgG level” value in test [3] is 1.21.

The record behind these values is patent US20240245796A1 (PROFOUNDBIO US, published 2024).
